Target: T1, full-length HA-epitope tagged huBUB1 (plasmid p396-1) (human, UniProt O43683 1-1085)
T1 construct: In vitro translated; precipitated with anti-HA monoclonal antibody and Protein G beads; also called HA-huBUB1; HA-BUB1; not shown: triple HA tag
Experiment: anti-HA co-immunoprecipitation of in vitro translated proteins, BUB3 present
Description: ³⁵S-methionine-labeled proteins and polypeptides were then produced from these plasmids by coupled in vitro transcription/translation reactions (IVT), as described above. IVT reactions were immunoprecipitated (IP), using either anti-FLAG agarose beads (Kodak IBI) or anti-HA monoclonal antibody combined with Protein G beads (BMB). Beads were extensively washed as previously described to ensure the removal of non-specifically-associated proteins, including relatively stringent washes in 2 M NaCl buffer. Bound proteins were released from beads by heating samples in SDS-sample buffer and were analyzed on 10-20% SDS-PAGE gels. Aliquots of initial ³⁵S-labeled translation reactions were analyzed as well.

B1: wild-type huBUB1 (full-length, plasmid p385-1) (enzyme)
chain: MDTPENVLQMLEAHMQSYKGNDPLGEWERYIQWVEENFPENKEYLITLLEHLMKEFLDKKKYHNDPRFISYCLKFAEYNSDLHQFFEFLYNHGIGTLSSPLYIAWAGHLEAQGELQHASAVLQRGIQNQAEPREFLQQQYRLFQTRLTETHLPAQARTSEPLHNVQVLNQMITSKSNPGNNMACISKNQGSELSGVISSACDKESNMERRVITISKSEYSVHSSLASKVDVEQVVMYCKEKLIRGESEFSFEELRAQKYNQRRKHEQWVNEDRHYMKRKEANAFEEQLLKQKMDELHKKLHQVVETSHEDLPASQERSEVNPARMGPSVGSQQELRAPCLPVTYQQTPVNMEKNPREAPPVVPPLANAISAALVSPATSQSIAPPVPLKAQTVTDSMFAVASKDAGCVNKSTHEFKPQSGAEIKEGCETHKVANTSSFHTTPNTSLGMVQATPSKVQPSPTVHTKEALGFIMNMFQAPTLPDISDDKDEWQSLDQNEDAFEAQFQKNVRSSGAWGVNKIISSLSSAFHVFEDGNKENYGLPQPKNKPTGARTFGERSVSRLPSKPKEEVPHAEEFLDDSTVWGIRCNKTLAPSPKSPGDFTSAAQLASTPFHKLPVESVHILEDKENVVAKQCTQATLDSCEENMVVPSRDGKFSPIQEKSPKQALSSHMYSASLLRLSQPAAGGVLTCEAELGVEACRLTDTDAAIAEDPPDAIAGLQAEWMQMSSLGTVDAPNFIVGNPWDDKLIFKLLSGLSKPVSSYPNTFEWQCKLPAIKPKTEFQLGSKLVYVHHLLGEGAFAQVYEATQGDLNDAKNKQKFVLKVQKPANPWEFYIGTQLMERLKPSMQHMFMKFYSAHLFQNGSVLVGELYSYGTLLNAINLYKNTPEKVMPQGLVISFAMRMLYMIEQVHDCEIIHGDIKPDNFILGNGFLEQDDEDDLSAGLALIDLGQSIDMKLFPKGTIFTAKCETSGFQCVEMLSNKPWNYQIDYFGVAATVYCMLFGTYMKVKNEGGECKPEGLFRRLPHLDMWNEFFHVMLNIPDCHHLPSLDLLRQKLKKVFQQHYTNKIRALRNRLIVLLLECKRSRK
notes: Full-length, untagged protein made in vitro (T7 TnT kit), 35S-methionine-labeled or unlabeled; also called full-length huBUB1; untagged huBUB1
binding result: no binding

From patent US20020123042A1 (CHIRON, published 2002)
